Measured values as given in US20250163127A1.
Like-named read-outs stand apart in the source and are kept apart here. Each block holds one substance with its values, some of them ahead of it.

Tests used:
[1] = molecular target: CD28 (human) (UniProt P10747); experiment: flow cytometry, cells expressing CD28
[2] = molecular target: PD-L1 (human); experiment: flow cytometry, cells expressing PD-L1
[3] = molecular target: CTLA-4 (human); experiment: flow cytometry, cells expressing CTLA-4
[4] = molecular target: PD-L1 (human); experiment: flow cytometry, CHO cells stably expressing PD-L1
Target sequence in this assay (chain, as listed by the source): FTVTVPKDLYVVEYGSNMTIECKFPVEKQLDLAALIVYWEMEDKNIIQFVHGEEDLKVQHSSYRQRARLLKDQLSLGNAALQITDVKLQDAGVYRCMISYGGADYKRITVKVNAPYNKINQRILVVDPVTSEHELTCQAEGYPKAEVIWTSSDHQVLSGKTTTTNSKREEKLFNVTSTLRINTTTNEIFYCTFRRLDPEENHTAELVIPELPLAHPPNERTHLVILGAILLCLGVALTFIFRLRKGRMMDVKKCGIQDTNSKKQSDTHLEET

[5] = molecular target: CTLA4 (human); experiment: flow cytometry, CHO cells stably expressing CTLA4
[6] = molecular target: CD28 (human) (UniProt P10747); experiment: flow cytometry, Jurkat cells (CD28)
[7] = molecular target: CTLA-4 (Homo sapiens (Human)) (UniProt P16410); experiment: flow cytometry, transfected cells
[8] = molecular target: CD28 (human) (UniProt P10747); experiment: flow cytometry, transfected cells
[9] = molecular target: CD28 (human) (UniProt P10747); experiment: flow cytometry, Jurkat cells (CD28); remark: listed apart in the source
[10] = molecular target: CTLA-4 (human); experiment: flow cytometry, CHO cells expressing CTLA4
Target sequence in this assay (chain, as listed by the source): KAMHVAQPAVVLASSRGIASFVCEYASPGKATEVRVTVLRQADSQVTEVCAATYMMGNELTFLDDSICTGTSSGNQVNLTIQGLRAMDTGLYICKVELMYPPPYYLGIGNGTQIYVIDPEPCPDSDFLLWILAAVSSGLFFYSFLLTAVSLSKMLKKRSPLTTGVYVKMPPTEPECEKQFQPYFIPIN

[11] = molecular target: PD-L1 (human); experiment: flow cytometry, CHO cells expressing PD-L1
[12] = molecular target: ICOS (Homo sapiens (Human)) (UniProt Q9Y6W8); experiment: flow cytometry, transfected cells
[13] = molecular target: CD86 (human) (UniProt P42081); experiment: flow cytometry, cells expressing the partner
[14] = molecular target: CD80 (human) (UniProt P33681); experiment: flow cytometry, cells expressing the partner
[15] = molecular target: CD28, full-length, expressed on transfected cells (Homo sapiens (Human)) (UniProt P10747); experiment: flow cytometry, cells expressing target

Chain of ICOS (Homo sapiens (Human)) (Q9Y6W8 21-199 limits assumed): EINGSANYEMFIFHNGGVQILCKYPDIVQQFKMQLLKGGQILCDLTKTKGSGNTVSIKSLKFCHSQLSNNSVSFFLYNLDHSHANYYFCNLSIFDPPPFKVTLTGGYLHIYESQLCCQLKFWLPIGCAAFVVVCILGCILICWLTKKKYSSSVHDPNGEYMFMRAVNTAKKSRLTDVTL
Chain of WT CD80 (Fc fusion) (chain): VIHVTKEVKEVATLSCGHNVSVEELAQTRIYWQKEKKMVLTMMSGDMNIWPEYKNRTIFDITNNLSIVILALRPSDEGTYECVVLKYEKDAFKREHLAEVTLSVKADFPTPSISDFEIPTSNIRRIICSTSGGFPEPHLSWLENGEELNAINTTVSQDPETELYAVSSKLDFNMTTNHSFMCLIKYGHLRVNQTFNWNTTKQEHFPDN
Chain of CD80 (human) (P33681 35-288): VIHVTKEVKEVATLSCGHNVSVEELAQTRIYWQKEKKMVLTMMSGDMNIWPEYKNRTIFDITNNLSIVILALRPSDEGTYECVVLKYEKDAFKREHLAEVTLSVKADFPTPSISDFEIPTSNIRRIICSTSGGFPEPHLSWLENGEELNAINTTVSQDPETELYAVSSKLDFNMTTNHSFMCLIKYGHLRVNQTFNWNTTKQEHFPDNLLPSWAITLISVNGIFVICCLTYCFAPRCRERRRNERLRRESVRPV

Substance: variant CD80 M38V/T41D/M43I/W50G/D76G/V83A/K89E/I118V/T120S/I126V/T130A (Fc fusion)
MFI [1]: 5 MFI

Substance: CD80 variant E35D/M47I/K54R/L85E IgV-Fc (Fc fusion)
MFI at 33.3 nM [4]: 36900 MFI
MFI at 33.3 nM [5]: 8660 MFI

Substance: CD80 variant E35D/M47L/A71G/L97Q IgV-Fc (Fc fusion)
MFI at 33.3 nM [6]: 300 MFI
MFI at 33.3 nM [5]: 226000 MFI

Substance: ICOSL-Fc N52D/Q100S (Fc fusion)
MFI [7]: 333000 MFI
MFI [8]: 95700 MFI

Substance: variant CD80 H18Y/E35D/N48K (Fc fusion)
MFI at 33.3 nM [10]: 261000 MFI

Substance: CD80 variant E35D/M47V/T62A/A71G/V83A/Y87H/L97M IgV-Fc (Fc fusion)
MFI at 33.3 nM [6]: 305 MFI
MFI at 33.3 nM [4]: 77500 MFI
MFI at 33.3 nM [5]: 18100 MFI

Substance: ICOSL-Fc N52R/N57W (Fc fusion)
MFI [7]: 318000 MFI
MFI [8]: 137000 MFI

Substance: variant CD80 A26E/E35D/M47L/A71G (Fc fusion)
Fold change to WT CD80 [9]: 0.12 fold
MFI at 33.3 nM [9]: 2160 MFI
Fold change to WT CD80 [11]: 4.49 fold
MFI at 33.3 nM [11]: 53400 MFI
MFI at 33.3 nM [10]: 341000 MFI

Substance: ICOSL-Fc N52R/N57Y/Q100P (Fc fusion)
MFI [7]: 502000 MFI
MFI [8]: 133000 MFI

Substance: variant CD80 Q27H/E35D/D46V/M47L/A71G (Fc fusion)
MFI at 33.3 nM [9]: 10400 MFI

Substance: variant CD80 R29H/E52G/D90N/I118V/T120S/T130A (Fc fusion)
MFI [1]: 66 MFI
MFI [3]: 141 MFI

Substance: ICOSL-Fc N52T/N57Y/Q100A (Fc fusion)
MFI [7]: 341000 MFI
MFI [8]: 161000 MFI

Substance: CD80 variant Q33R/E35D/K37E/M47V/L85Q IgV-Fc (Fc fusion)
MFI at 33.3 nM [6]: 258 MFI
MFI at 33.3 nM [4]: 44400 MFI

Substance: WT CD80 (Fc fusion)
MFI [2]: 70 MFI

Substance: ICOSL ECD-Fc N52H/N57Y/Q100R/F172S (Fc fusion)
MFI [12]: 238000 MFI
MFI [7]: 606000 MFI

Substance: variant CD80 V22L/Q27H/E35D/M47I/A71G (Fc fusion)
Fold change to WT CD80 [9]: 0.4 fold
MFI at 33.3 nM [9]: 7270 MFI
MFI at 33.3 nM [11]: 43800 MFI
Fold change to WT CD80 [10]: 0.96 fold
MFI at 33.3 nM [10]: 152000 MFI

Substance: ICOSL ECD-Fc N30D/N52S/L67P/Q100K/D217G/R221K/T225S (Fc fusion)
MFI [15]: 1990 MFI

Substance: CD80 variant Q33R/E35D/D46E/M47I IgV-Fc (Fc fusion)
MFI at 33.3 nM [6]: 303 MFI
MFI at 33.3 nM [5]: 3560 MFI

Substance: ICOSL-Fc N52T/N57K/Q100P (Fc fusion)
MFI [7]: 78300 MFI
MFI [8]: 88700 MFI

The remaining lines, values ahead:

MFI [2]: 85 MFI
MFI [3]: 200 MFI
Substance: variant CD80 A91G (Fc fusion)

MFI [1]: 8 MFI
Substance: variant CD80 K36E/I67T/L70Q/A91G/I118V/T120S/T130A/N152T (Fc fusion)

MFI [2]: 6 MFI
Substance: variant CD80 Y31H/T41G/M43L/L70Q/A91G/I118V/T120S/I126V/T130A (Fc fusion)

MFI [7]: 252000 MFI
MFI [8]: 132000 MFI
Substance: ICOSL-Fc N52V/N57L/Q100A (Fc fusion)

MFI [2]: 5 MFI
parental ratio [2]: 0.08
MFI [1]: 98 MFI
parental ratio [1]: 1.03
MFI [3]: 160 MFI
parental ratio [3]: 0.77
Substance: variant CD80 I67T/L70Q/A91G/I118V/T120S (Fc fusion)

MFI [7]: 464000 MFI
MFI [8]: 185000 MFI
Substance: ICOSL-Fc N52R/N57F/Q100R (Fc fusion)

MFI at 33.3 nM [9]: 527 MFI
Substance: variant CD80 V22D/E35D/M47L/L70M/L97Q (Fc fusion)

MFI at 33.3 nM [11]: 43900 MFI
MFI at 33.3 nM [10]: 205000 MFI
Substance: variant CD80 I30V/E35D/M47V/A71G/A91V (Fc fusion)

MFI at 33.3 nM [11]: 693 MFI
MFI at 33.3 nM [10]: 226000 MFI
Substance: variant CD80 E35D/M47V/T62A/A71D/K93E (Fc fusion)

MFI at 33.3 nM [9]: 6360 MFI
MFI at 33.3 nM [11]: 36200 MFI
Substance: variant CD80 E35D/M47V/A71G (Fc fusion)

MFI at 33.3 nM [4]: 67100 MFI
MFI at 33.3 nM [5]: 311000 MFI
Substance: CD80 variant E24D/Q33L/E35D/M47V/K54R/L85Q IgV-Fc (Fc fusion)

MFI [12]: 214000 MFI
MFI [8]: 142000 MFI
Substance: ICOSL-Fc N52H/N57Y/Q100K (Fc fusion)

MFI [13]: 665000 MFI
MFI [14]: 2110 MFI
Substance: CTLA-4 ECD-Fc L98R/N110K (Fc fusion)

MFI at 33.3 nM [11]: 21800 MFI
MFI at 33.3 nM [10]: 204000 MFI
Substance: variant CD80 E35D/M38T/M43V/M47V/N48R/L85Q (Fc fusion)

MFI at 33.3 nM [6]: 266 MFI
Substance: CD80 variant S15P/Q33L/E35D/M47L/L85Q IgV-Fc (Fc fusion)

MFI at 33.3 nM [6]: 282 MFI
MFI at 33.3 nM [4]: 36100 MFI
Substance: CD80 variant Q27H/E35D/M47L/L85Q/R94Q/E95K IgV-Fc (Fc fusion)

MFI at 33.3 nM [11]: 34100 MFI
MFI at 33.3 nM [10]: 184000 MFI
Substance: variant CD80 E35D/A71G (Fc fusion)
